Assay results reported in US9459207B2, “Method of characterizing interactions and screening for effectors” (Wyatt Technology Corporation, priority 2010, dated 2016).

B1: soybean trypsin inhibitor: protein, molar mass of 22 kDa, binds chymotrypsin (protein, UniProt P01070 25-205, looked up)
Trypsin inhibitor A: DFVLDNEGNPLENGGTYYILSDITAFGGIRAAPTGNERCPLTVVQSRNELDKGIGTIISSPYRIRFIAEGHPLSLKFDSFAVIMLCVGIPTEWSVVEDLPEGPAVKIGENKDAMDGWFRLERVSDDEFNNYKLVFCPQQAEDDKCGDIGISIDHDDGTRRLVVSKNKPLVVQFQKLDKESL

Target: chymotrypsin (Bos taurus, UniProt P00766)
Assay: Dynamic light scattering heteroassociation experiment (rh vs molar ratio of the two proteins, fitted)
Assay type: binding
Description: The method begins with sample preparation to be described presently. The DLS data are collected, and then analyzed in a four-step procedure. First, the concentrations of all components in a solution at a given time are calculated from postulated stoichiometries, association constant(s), Ka, and the known a priori concentrations of the stock solutions of the constituent molecule(s). […] Third, the modeled concentration data and modeled hydrodynamic radius data are combined to model the expected dynamic light scattering data at each sample ratio. Fourth, a best fit of the models to the collected DLS data is obtained. Thus, some or all parameters are adjusted to produce a best fit to the DLS data. Such fitting might be achieved using a least squares method, for example. These four steps of data analysis are discussed in detail in the following, and variations are possible, as would be apparent to one skilled in the art of DLS or particle associations.
In this example, to prepare the sample series for both self- and hetero-association, two stock solutions are mixed manually. For analysis of hetero-association, a high concentration, on the order of 0.5 mg/mL, solution of each pure molecule is prepared in the same solvent. For larger molecules, such as those greater than, say, 50 kDa, lower concentrations may be used. For analysis of self-association reactions, the molecular solution is prepared at the highest concentration to be tested; the second solution is the pure solvent in which the sample molecule was prepared. All solutions are filtered through a 0.02 μm filter.
For either type of analysis, aliquots of the two solution mixtures are dispensed into a 1536 well microtiter plate in a series of ratios from 100% A:0% B to 0% A:100% B, or some subset thereof, where the number of ratios prepared depends upon the desired detail of analysis. Typically, 10-20 ratios are used.
Following the dispensing of the sample, the microtiter plate is centrifuged at a rate and duration sufficient to remove any bubbles present in the samples; typically 1000 g for 15 seconds. Wells may then be covered to avoid evaporation, for example, by dispensing approximately 10 μL of paraffin oil into each well. The plate is then re-centrifuged prior to being placed into a dynamic light scattering instrument programmed, for example, to make 25 one-second dynamic light scattering measurements per well.
As an example of the inventive method, we consider two species A and B associating to form species AB with equilibrium association constant KAB: A+B ? AB. In this example we will use fitting procedure C, using the average hydrodynamic radius found by fitting the autocorrelation function measured for each sample to a cumulants model. We will assume that Equation (11) is valid. […]

| Molecule | binding to chymotrypsin (in words) (negative control, FIG. 5) | association constant (negative control, pH 6.7) | a value (association conformation parameter) (DLS fit, rAB={rA^a+rB^a}^1/a) | association constant (DLS fit, soybean trypsin inhibitor fitted with an incompetent fraction of chymotrypsin) [M⁻¹] |
| --- | --- | --- | --- | --- |
| lysozyme: protein, 14.4 kDa, negative control | no binding | 0 |  |  |
| B1 |  |  | 2.26 | 3.8e+06 |
